Experimental data from patent US20260258156A1 (TRIVENI BIO, published 2026).
Where a chain is given by its changes, count along the chain named.

B1: KLK5/KLK7-Dual-Ab2 (antibody, V domains shown)
VH: QLQLQESGPGLVKPSETLSLTCTVSGGSISSDDYYWVWIRQPPGKGLEWIGSIDYFASTYYNPSLKSRVTISVDTSKNQFSLKLSSVTAADTAVYYCARGRPLGYGARHDYYGMDVWGQGTTVTVSS
VL: DIQMTQSPSSLSASVGDRVTITCRASQSISSYLNWYQQKPGKAPKLLIYSASSLQSGVPSRFSGSGSGTDFTLTISSLQPEDFATYYCQQSPYFPPLTFGGGTKVEIK
notes: Captured on a Protein A chip as an antibody; also called KLK5/7-Dual-Ab2
B2: KLK5/KLK7-Dual-Ab3 (antibody, V domains shown)
VH: B1 VH with F56Y, N62S, R108K, D110Y
VL: B1 VL
notes: Captured on a Protein A chip as an antibody; also called KLK5/7-Dual-Ab3
B3: KLK5/KLK7-Dual-Ab1 (antibody, V domains shown)
VH: B1 VH with D32S, V37G, D54Y, F56S, A57G, D110Y
VL: B1 VL with Y93P
notes: Captured on a Protein A chip as an antibody; also called KLK5/7-Dual-Ab1
B4: KLK5/KLK7-Dual-Ab4 (antibody, V domains shown)
VH: B1 VH with D32L, F56S, A57G, S58D, D110Y, G113A
VL: B1 VL
notes: Captured on a Protein A chip or coupled to a CM5 chip as an antibody; also called KLK5/7-Dual-Ab4

Experiments:
mouse KLK5 [1] = molecular target: T1, mouse KLK5 (mouse); assay: SPR (Biacore), antibody captured on Protein A chip, KLK as analyte, single-cycle kinetics, 25 C
T1 construct: also called mKLK5
Method: (§1) All screening assays were performed at 25° C. The running buffer used was 20 mM HEPES, 300 mM NaCl, 0.01% Tween-20, pH 7.5. Antibodies (1 μg/mL) were captured on Fc2-4 of a Series S ProteinA Sensor Chip (Cytiva) flowing at 10 μL/min for 30 s. Kinetics measurements were made in single-cycle kinetics mode with a series of 4-5 concentrations with top concentration of 25-100 nM and serial dilution 4-fold. Contact time was typically 300 s and dissociation time ranged from 1800-3600 s. Flow rate of 30 μL/min was typically used. The sensor chip was regenerated with 10 mM glycine, pH 1.5 with a contact time of 30 s flowing at 50 μL/min.

mouse KLK7 [2] = molecular target: T2, mouse KLK7 (mouse, UniProt Q91VE3 26-249, limits assumed); assay: as above
T2 construct: also called mKLK7
T2 sequence (Q91VE3 26-249 limits assumed): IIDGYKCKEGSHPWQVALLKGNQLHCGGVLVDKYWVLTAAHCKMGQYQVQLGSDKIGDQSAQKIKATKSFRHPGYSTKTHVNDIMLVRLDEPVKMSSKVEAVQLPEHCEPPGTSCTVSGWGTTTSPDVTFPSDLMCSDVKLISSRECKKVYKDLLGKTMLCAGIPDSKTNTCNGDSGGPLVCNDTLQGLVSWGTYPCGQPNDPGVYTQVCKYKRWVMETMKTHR
Method: as §1

human KLK5, active form [3] = molecular target: T3, human KLK5, active form (human, UniProt Q9Y337 67-293); assay: as above
T3 construct: mature; also called hKLK5; huKLK5
Method: as §1

human KLK7, active form [4] = molecular target: T4, human KLK7, active form (human, UniProt P49862 30-253); assay: as above
T4 construct: mature; also called hKLK7; huKLK7
T4 sequence (P49862 30-253): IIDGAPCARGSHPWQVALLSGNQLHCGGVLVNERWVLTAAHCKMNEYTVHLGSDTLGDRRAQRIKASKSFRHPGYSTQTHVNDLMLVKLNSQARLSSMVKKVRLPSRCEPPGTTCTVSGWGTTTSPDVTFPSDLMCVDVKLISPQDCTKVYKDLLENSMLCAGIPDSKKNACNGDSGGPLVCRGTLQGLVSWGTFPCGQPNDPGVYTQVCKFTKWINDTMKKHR
Method: as §1

mouse KLK5 [5] = molecular target: T1, mouse KLK5; assay: cell-based or functional assay
mouse KLK7 [6] = molecular target: T2, mouse KLK7; assay: cell-based or functional assay
human KLK5, active form [7] = molecular target: T3, human KLK5, active form; assay: cell-based or functional assay
human KLK7, active form [8] = molecular target: T4, human KLK7, active form; assay: cell-based or functional assay
human KLK7, active form [9] = molecular target: T4, human KLK7, active form; assay: SPR (Biacore), antibody captured on Protein A chip, active huKLK7 injected at 0.156-40 nM
Method: (§2) The sensor chip was regenerated with 10 mM glycine, pH 1.5 with a contact time of 30 seconds flowing at 50 μL/min.

pro-form of human KLK7 = molecular target: T5, pro-form of human KLK7 (human, UniProt P49862 23-253); assay: SPR (Biacore), antibody captured on Protein A chip, proform huKLK7 injected at 0.156-40 nM
T5 construct: Pro-form (zymogen); also called proform of huKLK7; proKLK7
T5 sequence (P49862 23-253): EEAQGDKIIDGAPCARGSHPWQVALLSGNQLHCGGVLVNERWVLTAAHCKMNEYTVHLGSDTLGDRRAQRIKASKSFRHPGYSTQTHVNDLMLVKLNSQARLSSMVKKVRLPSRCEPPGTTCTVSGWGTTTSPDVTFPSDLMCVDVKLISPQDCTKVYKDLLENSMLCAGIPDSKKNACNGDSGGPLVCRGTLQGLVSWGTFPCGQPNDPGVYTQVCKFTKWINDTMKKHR
Method: as §2

pro-form of human KLK5 = molecular target: T6, pro-form of human KLK5 (human, UniProt Q9Y337 23-293); assay: SPR (Biacore), antibody captured on Protein A chip, proform huKLK5 injected at 0.156-40 nM
T6 construct: Pro-form (zymogen); also called proform of huKLK5; proKLK5
Method: as §2

human KLK5, active form [10] = molecular target: T3, human KLK5, active form; assay: SPR (Biacore), antibody captured on Protein A chip, active huKLK5 injected at 0.156-40 nM
Method: as §2

| Binder | Kd (mouse KLK5 [1]) [nM] | Kd (mouse KLK7 [2]) [nM] | Kd (human KLK5, active form [3]) [nM] | Kd (human KLK7, active form [4]) [nM] | IC50(nM), inhibition of protease activity (cleavage of BOC-Val-Pro-Arg-AMC) (mouse KLK5 [5]) [nM] | IC50(nM), inhibition of protease activity (cleavage of KHLF-AMC) (mouse KLK7 [6]) [nM] | IC50(nM), inhibition of protease activity (cleavage of BOC-Val-Pro-Arg-AMC) (human KLK5, active form [7]) [nM] | IC50(nM), inhibition of protease activity (cleavage of KHLF-AMC) (human KLK7, active form [8]) [nM] | Kd (human KLK7, active form [9]) [nM] | binding result (pro-form of human KLK7) | binding result (pro-form of human KLK5) | Kd (human KLK5, active form [10]) [nM] |
| --- | --- | --- | --- | --- | --- | --- | --- | --- | --- | --- | --- | --- |
| B1 | 2.79 | 1.55 | 0.01 | 0.0218 | 17.2 | 5.13 | 0.25 | 0.25 | – | – | – | – |
| B2 | 4.02 | 1.11 | 0.141 | 0.0136 | 24.1 | 5.28 | 0.25 | 0.21 | – | – | – | – |
| B3 | – | 1 | 1000 | 1.82 | – | – | – | – | – | – | – | – |
| B4 | 3.15 | 0.129 | 0.0243 | 0.002 | 16.1 | 1.77 | 0.27 | 0.16 | < 0.05 | no binding (tested: 40 nM) | no binding (tested: 40 nM) | < 0.05 |
